Measured values taken from publication PMC6010752, “Development of GMP‐1 a molecular chaperone network modulator protecting mitochondrial function and its assessment in fly and mice models of Alzheimer's disease” (Journal of Cellular and Molecular Medicine, 2018).
Ends that are not written are not given here.

T1: Tom34 (Homo sapiens, UniProt Q15785)
T1 construct: gene TOMM34; full-length (Gst-tag-free)
T1 sequence (Q15785 1-309): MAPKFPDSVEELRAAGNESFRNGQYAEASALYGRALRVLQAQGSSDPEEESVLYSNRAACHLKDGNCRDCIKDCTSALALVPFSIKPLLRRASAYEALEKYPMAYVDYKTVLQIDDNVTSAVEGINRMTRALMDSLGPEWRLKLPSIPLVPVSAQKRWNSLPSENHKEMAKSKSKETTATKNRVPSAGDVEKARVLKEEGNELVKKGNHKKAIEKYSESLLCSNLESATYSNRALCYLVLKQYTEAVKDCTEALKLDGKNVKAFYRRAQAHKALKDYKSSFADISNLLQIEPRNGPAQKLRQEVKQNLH

T2: Tom70 (Homo sapiens, UniProt O94826)
T2 construct: gene TOMM70; cytoplasm-exposed domain of Tom70, amino acids 65-608 (Gst-tag-free)
T2 sequence (O94826 65-608): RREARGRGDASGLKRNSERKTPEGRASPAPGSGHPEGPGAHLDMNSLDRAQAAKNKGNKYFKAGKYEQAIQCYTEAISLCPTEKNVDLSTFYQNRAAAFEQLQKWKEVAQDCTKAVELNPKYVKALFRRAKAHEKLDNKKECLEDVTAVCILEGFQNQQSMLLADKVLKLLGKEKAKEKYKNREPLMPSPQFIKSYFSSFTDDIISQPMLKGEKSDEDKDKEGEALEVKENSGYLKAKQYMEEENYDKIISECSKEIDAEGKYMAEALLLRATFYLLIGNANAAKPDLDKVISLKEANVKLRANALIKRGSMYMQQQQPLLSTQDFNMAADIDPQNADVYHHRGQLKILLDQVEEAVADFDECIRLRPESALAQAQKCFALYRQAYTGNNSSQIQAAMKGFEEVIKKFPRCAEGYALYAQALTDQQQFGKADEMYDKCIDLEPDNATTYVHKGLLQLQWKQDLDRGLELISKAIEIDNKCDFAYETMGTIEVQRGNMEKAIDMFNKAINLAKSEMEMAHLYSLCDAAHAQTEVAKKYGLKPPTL

T3: FKBP51 (Homo sapiens, UniProt Q13451)
T3 construct: gene FKBP5; full-length (Gst-tag-free)
T3 sequence (Q13451 1-457): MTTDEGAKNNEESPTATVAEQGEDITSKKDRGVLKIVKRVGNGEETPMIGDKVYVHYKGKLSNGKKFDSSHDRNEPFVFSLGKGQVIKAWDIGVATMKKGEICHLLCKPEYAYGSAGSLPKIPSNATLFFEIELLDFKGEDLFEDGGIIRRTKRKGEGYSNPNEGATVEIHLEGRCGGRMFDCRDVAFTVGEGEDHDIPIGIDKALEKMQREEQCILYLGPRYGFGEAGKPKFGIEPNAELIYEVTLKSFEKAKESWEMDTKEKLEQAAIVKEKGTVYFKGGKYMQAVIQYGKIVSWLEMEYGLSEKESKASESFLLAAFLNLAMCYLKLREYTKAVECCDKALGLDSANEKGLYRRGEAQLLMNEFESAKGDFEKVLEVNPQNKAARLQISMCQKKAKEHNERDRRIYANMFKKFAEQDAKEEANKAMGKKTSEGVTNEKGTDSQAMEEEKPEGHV

T4: Tom70, cytoplasm‐exposed domain, amino acids 65‐608 (human, UniProt O94826 65-608)
T4 construct: Tom70, human, mitochondrial import receptor, cytoplasm‐exposed domain, amino acids 65‐608; Cloned into a pGEX6 vector; cDNA from the IMAGE consortium; also called human Tom70 protein; source: E. coli BL21, purified (Gst‐trap 4B), Gst removed with PreScission protease
T4 sequence (looked up): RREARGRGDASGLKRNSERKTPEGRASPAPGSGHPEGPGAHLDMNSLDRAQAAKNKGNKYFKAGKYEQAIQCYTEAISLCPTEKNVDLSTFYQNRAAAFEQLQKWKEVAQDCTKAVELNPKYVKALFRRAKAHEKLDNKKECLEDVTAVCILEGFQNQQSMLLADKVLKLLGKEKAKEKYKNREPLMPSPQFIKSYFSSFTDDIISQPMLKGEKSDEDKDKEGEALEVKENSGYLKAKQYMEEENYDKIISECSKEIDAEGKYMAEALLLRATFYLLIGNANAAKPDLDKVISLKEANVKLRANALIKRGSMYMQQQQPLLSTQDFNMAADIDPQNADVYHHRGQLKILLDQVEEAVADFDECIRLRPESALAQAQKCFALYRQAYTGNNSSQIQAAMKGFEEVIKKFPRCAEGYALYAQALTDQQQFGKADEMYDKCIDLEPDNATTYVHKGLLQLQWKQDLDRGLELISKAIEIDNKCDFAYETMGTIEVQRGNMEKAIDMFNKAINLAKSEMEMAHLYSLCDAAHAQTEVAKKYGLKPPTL

T5: PP5 (human, UniProt P53041 1-499)
T5 construct: PP5, human TPR protein, full length; Cloned into a pGEX6 vector; cDNA from the IMAGE consortium; source: E. coli BL21, purified (Gst‐trap 4B), Gst removed with PreScission protease
T5 sequence (looked up): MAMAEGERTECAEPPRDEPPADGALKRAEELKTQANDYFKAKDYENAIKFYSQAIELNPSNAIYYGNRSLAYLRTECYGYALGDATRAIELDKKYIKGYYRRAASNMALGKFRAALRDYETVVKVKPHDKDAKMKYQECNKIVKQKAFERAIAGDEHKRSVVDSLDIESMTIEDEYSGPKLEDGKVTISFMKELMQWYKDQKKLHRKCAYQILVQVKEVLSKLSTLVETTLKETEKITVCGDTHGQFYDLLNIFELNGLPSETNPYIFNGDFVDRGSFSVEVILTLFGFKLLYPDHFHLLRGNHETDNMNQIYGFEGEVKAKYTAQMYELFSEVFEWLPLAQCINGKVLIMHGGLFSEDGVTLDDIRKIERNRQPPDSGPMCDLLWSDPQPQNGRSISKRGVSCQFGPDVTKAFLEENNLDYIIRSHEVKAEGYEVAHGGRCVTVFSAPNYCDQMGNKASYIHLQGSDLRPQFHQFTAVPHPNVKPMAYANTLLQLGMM

T6: FKBP51 (human, UniProt Q13451 1-457)
T6 construct: FKBP51, human TPR protein, full length; Cloned into a pGEX6 vector; cDNA from the IMAGE consortium; source: E. coli BL21, purified (Gst‐trap 4B), Gst removed with PreScission protease
T6 sequence (looked up): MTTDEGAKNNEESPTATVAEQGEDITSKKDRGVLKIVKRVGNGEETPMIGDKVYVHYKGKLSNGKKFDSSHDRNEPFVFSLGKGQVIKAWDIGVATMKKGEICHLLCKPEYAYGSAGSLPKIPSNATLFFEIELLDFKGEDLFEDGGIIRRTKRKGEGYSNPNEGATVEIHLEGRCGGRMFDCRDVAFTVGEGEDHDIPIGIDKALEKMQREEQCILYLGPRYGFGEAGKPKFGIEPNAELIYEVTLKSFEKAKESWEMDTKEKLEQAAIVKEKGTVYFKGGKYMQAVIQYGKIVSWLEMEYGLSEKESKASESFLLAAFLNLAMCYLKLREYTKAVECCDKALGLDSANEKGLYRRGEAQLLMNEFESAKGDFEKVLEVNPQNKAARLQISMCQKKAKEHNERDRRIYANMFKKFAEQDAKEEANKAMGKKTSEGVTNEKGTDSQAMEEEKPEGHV

T7: Tom34 (human, UniProt Q15785 1-309)
T7 construct: Tom34, human TPR protein, full length; Cloned into a pGEX6 vector; cDNA from the IMAGE consortium; source: E. coli BL21, purified (Gst‐trap 4B), Gst removed with PreScission protease
T7 sequence (looked up): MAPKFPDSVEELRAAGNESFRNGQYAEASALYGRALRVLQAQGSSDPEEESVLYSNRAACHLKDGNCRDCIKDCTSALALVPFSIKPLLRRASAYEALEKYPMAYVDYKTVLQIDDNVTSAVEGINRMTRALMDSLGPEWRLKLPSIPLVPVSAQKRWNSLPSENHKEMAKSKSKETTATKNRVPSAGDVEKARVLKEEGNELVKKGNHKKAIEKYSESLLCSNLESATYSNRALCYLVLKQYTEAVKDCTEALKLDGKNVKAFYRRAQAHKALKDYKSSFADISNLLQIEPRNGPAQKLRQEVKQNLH


What was measured:
Tom34 [1] = target: T1, Tom34; test: dot-blot competition of Hsp90 C-terminal peptide-HRP (C90-HRP) with purified protein; assay type: binding
Tom70 = target: T2, Tom70; test: as above; assay type: binding
FKBP51 [2] = target: T3, FKBP51; test: as above; assay type: binding
[3] = target: T4, Tom70, cytoplasm‐exposed domain, amino …; test: far-Western, overlay or dot blot; Gst‐tag‐free proteins applied to nitrocellulose membrane, blocked with 3% BSA in TBS‐T; C90‐HRP (1 × 500 dilution) incubated for 1 hour; ECL signal; with DMSO or increasing concentrations of the compound GMP‐1; conditions: both partners purified
PP5 = target: T5, PP5; test: as above; conditions: both partners purified
FKBP51 [4] = target: T6, FKBP51; test: as above; conditions: both partners purified
Tom34 [5] = target: T7, Tom34; test: as above; conditions: both partners purified

IC50 (Tom34 [1]) | IC50 (Tom70) | IC50 (FKBP51 [2]) | binding result [3] | binding result (PP5) | binding result (FKBP51 [4]) | binding result (Tom34 [5]) | Molecule
180 µM | 45 µM | 150 µM | – | – | – | – | COCc1cc(O)n2c(n1)nc1ccccc12 [GMP-1, 2‐(methoxymethyl)pyrimido[1,2‐a]benzimidazol‐4‐ol]
– | – | – | binds | binds | binds | binds | HHHHHHDDTSRMEEVD-OH (also: coupled to horse-radish peroxidase (HRP), 10 amino acids of the C‐terminus of human Hsp90 alpha; also called Hsp90‐derived peptide; Hsp90 peptide conjugated to HRP; source: synthetic peptide (GL Biochem, Shanghai), coupled to HRP with the Lightning‐link HRP labeling kit; not shown: His6, N-terminal, kept)
